One block for each binder: values may come before it.
Columns and labels:
human EpCAM-Fc [1] = molecular target: T1, human EpCAM-Fc (human, UniProt P16422 24-265); experiment: ELISA, plate coated with human EpCAM-Fc at 5 µg/ml, scFv detected with mouse anti-cMyc 9E10 and rabbit anti-mouse-HRP, TMB, Abs 450 nm
T1 construct: extracellular domain; also called human EpCAM/Fc fusion; recombinant human EpCAM antigen; not shown: human Fc region from IgG1; limits not readable
T1 sequence (looked up): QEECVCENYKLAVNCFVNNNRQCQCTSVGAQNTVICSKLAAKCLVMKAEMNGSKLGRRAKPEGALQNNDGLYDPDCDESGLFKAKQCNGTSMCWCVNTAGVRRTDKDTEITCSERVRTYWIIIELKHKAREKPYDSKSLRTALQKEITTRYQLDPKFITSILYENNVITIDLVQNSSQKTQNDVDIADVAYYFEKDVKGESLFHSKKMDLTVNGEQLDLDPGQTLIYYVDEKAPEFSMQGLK
Experimental: FIGS. 10A and 10B show ELISA binding analysis of 3-17I scFv, 7-F17 scFv, 17-C20 scFv and 24-G6 scFv to human EpCAM-Fc (FIG. 10A) and to cynomolgus EpCAM-Fc (FIG. 10B). MAXI-Sorb plates were coated with human or cynomolgus EpCAM-Fc at a concentration of 5 μg/ml. The antibody was added in 2-fold dilutions from 667 nM to 3.2 nM.
For ELISA of antibodies in scFv format, the MAXI-sorb plate was coated with 5 μg/ml (100 μl per well) of human or cynomolgus EpCAM-Fc in PBS overnight at 4° C. The plates were blocked with 4% skimmed milk (Merck product no 1.15363.0500) in PBS for 2 hrs. […] For detection of bound scFv, a rabbit anti-mouse-HRP antibody (Dako, cat no P0260) was added in 1:3000 dilution in block solution and incubated for 1 hr at room temperature.

human EpCAM-Fc [2] = molecular target: T1, human EpCAM-Fc; experiment: ELISA, plate coated with human EpCAM-Fc at 1 µg/ml, goat anti-human kappa-HRP, ABTS, Abs 405 nm
Experimental: (§1) For ELISA of antibodies in IgG format, the MAXI-sorb plate was coated with 1 μg/ml (100 μl per well) of human or cynomolgus EpCAM-Fc in PBS overnight at 4° C. The plates were blocked with 3% BSA in PBS for 2 hrs. The IgGs to be tested were added in 2-fold dilutions from 133 nM to 32 fM and incubated for 1 hr at room temperature. For detection of bound IgG, a goat anti-human kappa-HRP antibody (Southern Biotech, cat no 2060-05) was added in 1:5000 dilution in block solution and incubated for 1 hr at room temperature.
(§2) The ELISA of antibodies in IgG format was developed using a 1-step ABTS Kit (Thermo Scientific prod #37615) and a 25 min incubation time. The absorbance was measured on a SLT SPECTRA plate reader. The software Prism (GraphPad, San Diego, Calif.) was used to estimate the affinities using a non-linear fit of one-site model on the retrieved ELISA data.

cynomolgus EpCAM-Fc = molecular target: T2, cynomolgus EpCAM-Fc (cynomolgus; human, UniProt P01857 99-330 = IgG part); experiment: ELISA, plate coated with cynomolgus EpCAM-Fc at 1 µg/ml, goat anti-human kappa-HRP, ABTS, Abs 405 nm
T2 construct: also called Cynomolgus EpCAM/Fc fusion; recombinant cynomolgus EpCAM antigen
Experimental: as §1, §2

[3] = molecular target: T3, EpCAM on the surface of EpCAM-positive tumor cell lines (UniProt P16422 24-314, limits assumed); experiment: flow cytometry on Kato III cells, RPE goat anti-human IgG detection, median fluorescence intensity
T3 construct: whole, on cells; One entry for the cell-borne antigen; the cell line of each result is named in the row; also called naturally EpCAM+ Kato III cell line; EpCAM-positive Kato III cells
T3 sequence (looked up): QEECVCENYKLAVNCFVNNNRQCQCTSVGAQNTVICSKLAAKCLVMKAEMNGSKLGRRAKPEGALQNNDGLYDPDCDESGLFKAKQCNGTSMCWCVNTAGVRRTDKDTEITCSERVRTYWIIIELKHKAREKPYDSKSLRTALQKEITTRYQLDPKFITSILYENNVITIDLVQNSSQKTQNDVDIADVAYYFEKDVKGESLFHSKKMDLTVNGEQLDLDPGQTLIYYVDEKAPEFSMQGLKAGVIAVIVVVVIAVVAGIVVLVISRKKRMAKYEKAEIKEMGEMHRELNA
Experimental: Flow cytometric analysis was performed to analyze binding of the 3-17I IgG to EpCAM-positive cells. As positive controls, anti-EpCAM chimeric (mouse variable/human constant domains) and fully human antibodies, MOC31 and MT201, respectively, were used.
The anti-green fluorescent protein (GFP) antibody was used as a negative control. For flow cytometry, Kato III cells (ATCC number (gastric carcinoma, ATCC number HTB-103)) were grown under standard conditions, harvested from the culture flasks, washed 2 times with PBS, re-suspended in PBS with 0.2% BSA and 0.09% NaN₃ and finally distributed at 1×10⁵ cells per well into V-shaped 96-well plates (Greiner Bio-One, Frickenhausen, Germany). Cells were centrifuged at 400×g for 5 min and then incubated at 4° C. for 45 min with 50 μL of each different antibody dilution (all dilutions made in PBS with 0.2% BSA and 0.09% NaN₃). After washing in PBS with 0.2% BSA and 0.09% NaN₃, the cells were stained with 10 μg/mL of RPE-conjugated goat anti-human IgG (AbDSerotec, Düsseldorf, Germany) for 30 min at 4° C. The stained cells were washed, re-suspended in 200 μL PBS with 0.2% BSA and 0.09% NaN₃ and transferred to a U-shaped 96-well plate (Corning, Schiphol-Rijk, The Netherlands) for analysis on EasyCyte flow cytometer (Guava Technologies, Hayward, Calif., USA).

[4] = molecular target: T3, EpCAM on the surface of EpCAM-positive …; experiment: cell-based or functional assay
human EpCAM-Fc [5] = molecular target: T1, human EpCAM-Fc; experiment: SPR, BIAcore T100, EpCAM-Fc coupled to CM5 chip (100 RU), 37 °C, 1:1 Langmuir model; SPR (BIAcore T100), 37 C, native EpCAM-Fc on the CM5 chip
Experimental: Binding of 3-17I to human and cynomolgus monkey EpCAM was analyzed using surface plasmon resonance (SPR) on a BIAcore T100 (BIAcore, Inc, Piscataway, N.J.). The extracellular domains of human or cynomolgus monkey EpCAM fused to human Fc (IgG1), were coupled to a CM5 chip (BIAcore, Inc, Piscataway, N.J.) at density of 100 RU. The SPR studies were performed using standard techniques at 37° C. with a flow rate of 50 μl/min. The data were analyzed using the 1:1 Langmuir binding model of the BIAcore software.

T2 sequence (P01857 other isoform, or with tags, fused parts or gaps limits assumed, form in doubt): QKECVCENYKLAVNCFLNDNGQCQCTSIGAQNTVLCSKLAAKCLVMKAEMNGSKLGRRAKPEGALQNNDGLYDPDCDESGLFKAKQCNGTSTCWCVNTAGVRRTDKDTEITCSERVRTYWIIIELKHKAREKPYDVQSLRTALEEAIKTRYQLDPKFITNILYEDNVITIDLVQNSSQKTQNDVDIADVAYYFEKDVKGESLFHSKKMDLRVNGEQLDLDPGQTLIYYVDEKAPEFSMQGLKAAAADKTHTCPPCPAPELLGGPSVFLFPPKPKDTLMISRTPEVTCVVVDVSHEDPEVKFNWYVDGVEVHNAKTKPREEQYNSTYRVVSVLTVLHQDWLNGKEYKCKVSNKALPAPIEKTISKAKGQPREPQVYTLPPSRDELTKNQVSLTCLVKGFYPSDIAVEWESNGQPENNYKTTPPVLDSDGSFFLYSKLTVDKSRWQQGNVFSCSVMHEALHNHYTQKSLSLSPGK

B1: 3-17I scFv (scFv)
scFv: QVQLVQSGAEVKKPGSSVKVSCKASGGTFSSYAISWVRQAPGQGLEWMGGIIPIFGTANYAQKFQGRVTITADESTSTAYMELSSLRSEDTAVYYCARGLLWNYWGQGTLVTVSSKLSGSASAPKLEEGEFSEARVEIVMTQSPATLSVSPGERATLSCRASQSVSSNLAWYQQKPGQAPRLIIYGASTTASGIPARFSASGSGTDFTLTISSLQSEDFAVYYCQQYNNWPPAYTFGQGTKLEIK
notes: expressed in E. coli TG1 from pHOG21; also called scFv format of 3-17I; not shown: C-terminal c-myc and His6 tags from pHOG21, with their junction residues
binding result (human EpCAM-Fc [1]): binds

B2: 7-F17 scFv (scFv)
scFv: QVQLVQSGAEVKKPGSSVKVSCKASGGTFSSYAISWVRQAPGQGLEWMGGIIPIFGTANYAQKFQGRVTITADESTSTAYMELSSLRSEDTAVYYCARGLLWNYWGQGTLVTVSSKLSGSASAPKLEEGEFSEARVETTLTQSPATLSVSPGERATLSCRASQSVSSNLAWYQQKPGQAPRLLIYGASTRATGIPARFSGSGSGTEFTLTISSLQSEDFAVYYCQQYNNWPPGFTFGPGTKVDIK
binding result (human EpCAM-Fc [1]): binds

B3: 24-G6 scFv (scFv)
scFv: QVQLVQSGAEVKKPGSSVKVSCKASGGTFSSYAISWVRQAPGQGLEWMGGIIPIFGTANYAQKFQGRVTITADESTSTAYMELSSLRSEDTAVYYCARGLLWNYWGQGTLVTVSSKLSGSASAPKLEEGEFSEARVETTLTQSPATLSVSPGERATLSCRASQSVSSNLAWYQQKPGQAPRLLIYGASTRATGIPARFSGSGSGTEFTLTISSLQSEDFAVYYCQKYNNWPPAFTFGPGTKVDIK
binding result (human EpCAM-Fc [1]): binds

B5: 17-C20 IgG (antibody, V domains shown)
VH: QVQLVQSGAEVKKPGSSVKVSCKASGGTFSSYAISWVRQAPGQGLEWMGGIIPIFGTANYAQKFQGRVTITADESTSTAYMELSSLRSEDTAVYYCARGLLWNYWGQGTLVTVSS
VL: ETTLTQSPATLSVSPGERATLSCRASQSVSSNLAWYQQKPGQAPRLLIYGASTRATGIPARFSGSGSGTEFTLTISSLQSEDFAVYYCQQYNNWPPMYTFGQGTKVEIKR
notes: also called 17-C20 full length IgG
binding result (human EpCAM-Fc [2]): binds

B7: 12-C15 IgG (antibody, V domains shown)
VH: QVQLVQSGAEVKKPGSSVKVSCKASGGTFSSYAISWVRQAPGQGLEWMGGIIPIFGTANYAQKFQGRVTITADESTSTAYMELSSLRSEDTAVYYCARGLLWNYWGQGTLVTVSS
VL: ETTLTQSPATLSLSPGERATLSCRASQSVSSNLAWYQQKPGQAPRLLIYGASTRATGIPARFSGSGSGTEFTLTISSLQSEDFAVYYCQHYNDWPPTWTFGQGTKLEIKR
notes: also called 12-C15 full length IgG
binding result (human EpCAM-Fc [2]): binds

The remaining lines, values ahead:

binding result (human EpCAM-Fc [1]): binds
B4: 17-C20 scFv (scFv)
scFv: QVQLVQSGAEVKKPGSSVKVSCKASGGTFSSYAISWVRQAPGQGLEWMGGIIPIFGTANYAQKFQGRVTITADESTSTAYMELSSLRSEDTAVYYCARGLLWNYWGQGTLVTVSSKLSGSASAPKLEEGEFSEARVETTLTQSPATLSVSPGERATLSCRASQSVSSNLAWYQQKPGQAPRLLIYGASTRATGIPARFSGSGSGTEFTLTISSLQSEDFAVYYCQQYNNWPPMYTFGQGTKVEIK

EC50 (read off the curve) (cynomolgus EpCAM-Fc): ~600 pM
EC50 (read off the curve) [3]: ~100 ng/mL
ADCC EC50, BT-474 cells, human PBMC, E:T 20:1 [4]: 0.12 ng/mL
ADCC EC50, MDA-MB-231 cells, human PBMC, E:T 20:1 [4]: 15 ng/mL
ADCC EC50, MDA-MB-453 cells, human PBMC, E:T 20:1 [4]: 0.08 ng/mL
CDC EC50, KATO III cells, human serum [4]: 0.28 ng/mL
CDC EC50, MT-3 cells, human serum [4]: 0.38 ng/mL
EC50 (read off the curve) (human EpCAM-Fc [2]): ~700 pM
Kd (human EpCAM-Fc [5]): 1000 pM
koff (human EpCAM-Fc [5]): 0.03 s⁻¹
kon (human EpCAM-Fc [5]): 3e+07 M⁻¹ s⁻¹
B6: 3-17I IgG (antibody, V domains shown)
VH: QVQLVQSGAEVKKPGSSVKVSCKASGGTFSSYAISWVRQAPGQGLEWMGGIIPIFGTANYAQKFQGRVTITADESTSTAYMELSSLRSEDTAVYYCARGLLWNYWGQGTLVTVSS
VL: EIVMTQSPATLSVSPGERATLSCRASQSVSSNLAWYQQKPGQAPRLIIYGASTTASGIPARFSASGSGTDFTLTISSLQSEDFAVYYCQQYNNWPPAYTFGQGTKLEIKR
notes: also called 3-17I full length IgG

binding result (human EpCAM-Fc [2]): binds
B8: 16-G5 IgG (antibody, V domains shown)
VH: QVQLVQSGAEVKKPGSSVKVSCKASGGTFSSYAISWVRQAPGQGLEWMGGIIPIFGTANYAQKFQGRVTITADESTSTAYMELSSLRSEDTAVYYCARGLLWNYWGQGTLVTVSS
VL: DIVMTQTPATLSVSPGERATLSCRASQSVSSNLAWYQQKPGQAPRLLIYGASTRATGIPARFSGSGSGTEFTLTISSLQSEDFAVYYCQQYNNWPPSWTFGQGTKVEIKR
notes: also called 16-G5 full length IgG

EC50 (read off the curve) [3]: ~300 ng/mL
EC50 (read off the curve) (human EpCAM-Fc [2]): ~1000 pM
B9: MOC31 IgG (antibody, V domains shown)
VH: QVKLQQSGPELKKPGETVKISCKASGYTFTNYGMNWVKQAPGKGLKWMGWINTYTGESTYADDFKGRFAFSLETSASAAYLQINNLKNEDTATYFCARFAIKGDYWGQGTTVTVSS
VL: DIVLTQSPFSNPVTLGTSASISCRSTKSLLHSNGITYLYWYLQKPGQSPQLLIYQMSNLASGVPDRFSSSGSGTDFTLRISRVEAEDVGVYYCAQNLEIPRTFGGGTKLEIK

ADCC EC50, BT-474 cells, human PBMC, E:T 20:1 [4]: 382 ng/mL
ADCC EC50, MDA-MB-453 cells, human PBMC, E:T 20:1 [4]: 7 ng/mL
CDC EC50, KATO III cells, human serum [4]: 76 ng/mL
CDC EC50, MT-3 cells, human serum [4]: 89 ng/mL
CDC: fold higher antibody concentration needed than for 3-17I IgG (ratio of the EC50 values; KATO III and MT-3 cells, human serum) [4]: 250 fold
B10: MT201 IgG (antibody, V domains shown)
VH: EVQLLESGGGVVQPGRSLRLSCAASGFTFSSYGMHWVRQAPGKGLEWVAVISYDGSNKYYADSVKGRFTISRDNSKNTLYLQMNSLRAEDTAVYYCAKDMGWGSGWRPYYYYGMDVWGQGTTVTVSS
VL: ELQMTQSPSSLSASVGDRVTITCRTSQSISSYLNWYQQKPGQPPKLLIYWASTRESGVPDRFSGSGSGTDFTLTISSLQPEDSATYYCQQSYDIPYTFGQGTKLEIK

Reference: patent US20100310463A1 (AFFITECH RESEARCH, published 2010)
